# In the supplement of paper PMC9112550, “Optimization of the antimicrobial peptide Bac7 by deep mutational scanning” (BMC Biology, 2022):
# Tested on: Escherichia coli TOP10
# Test: shrunken log2 fold change of peptide-encoding DNA abundance (4.5 h post-induction vs induction); higher = less antimicrobial activity (less host growth inhibition)
# Settings: time post-induction: 4.5 h; library: site-saturation at positions 5, 18, 19, 20
# 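Note: peptides expressed intracellularly from a pBAD plasmid library in pooled LB shake-flask culture, induced with 0.3% L-arabinose, DNA abundance read by NGS, three biological replicates, DESeq2 with apeglm shrinkage.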
row,Sequence,shrunken log2 fold change
1,RRIRKRPPRLPRPRPRPWKGPRP,0.0195
2,RRIRSRPPRLPRPRPRPHPAPRP,-0.177
3,RRIRCRPPRLPRPRPRPFSTPRP,-0.472
4,RRIRQRPPRLPRPRPRPEAGPRP,0.109
5,RRIRYRPPRLPRPRPRPMVSPRP,-0.00277
6,RRIRARPPRLPRPRPRPFWQPRP,0.0762
7,RRIRMRPPRLPRPRPRPYIPPRP,-1.28
8,RRIRMRPPRLPRPRPRPCMKPRP,-0.125
9,RRIRVRPPRLPRPRPRPEKDPRP,0.188
10,RRIRIRPPRLPRPRPRPQKNPRP,-0.355
11,RRIRTRPPRLPRPRPRPDEGPRP,-0.0183
12,RRIRHRPPRLPRPRPRPMTKPRP,0.0576
13,RRIRDRPPRLPRPRPRPIWMPRP,-0.00247
14,RRIRSRPPRLPRPRPRPWCVPRP,-0.22
15,RRIRERPPRLPRPRPRPMHIPRP,-0.185
16,RRIRERPPRLPRPRPRPNCMPRP,-0.526
17,RRIRTRPPRLPRPRPRPNVRPRP,0.075
18,RRIRGRPPRLPRPRPRPTGNPRP,0.452
19,RRIRMRPPRLPRPRPRPKPYPRP,0.314
20,RRIRERPPRLPRPRPRPYKSPRP,-0.0824
21,RRIRIRPPRLPRPRPRPQFDPRP,-0.505
22,RRIRERPPRLPRPRPRPVHCPRP,-0.293
23,RRIRGRPPRLPRPRPRPVMHPRP,0.575
24,RRIRKRPPRLPRPRPRPYRNPRP,0.00408
25,RRIRLRPPRLPRPRPRPTQRPRP,0.248

row,Sequence,shrunken log2 fold change
1,RRIRERPPRLPRPRPRPKIKPRP,-0.6
2,RRIRMRPPRLPRPRPRPWDTPRP,-0.0606
3,RRIRQRPPRLPRPRPRPLQYPRP,-0.0199
4,RRIRVRPPRLPRPRPRPPGDPRP,0.12
5,RRIRERPPRLPRPRPRPCAEPRP,-0.0868
6,RRIRGRPPRLPRPRPRPKRDPRP,0.738
7,RRIRLRPPRLPRPRPRPMSCPRP,0.0448
8,RRIRVRPPRLPRPRPRPHCIPRP,-0.551
9,RRIRVRPPRLPRPRPRPEIRPRP,0.173
10,RRIRFRPPRLPRPRPRPRMRPRP,0.608
11,RRIRWRPPRLPRPRPRPKQNPRP,0.3
12,RRIRVRPPRLPRPRPRPNPNPRP,-0.108
13,RRIRPRPPRLPRPRPRPCSLPRP,0.527
14,RRIRLRPPRLPRPRPRPRWLPRP,0.398
15,RRIRGRPPRLPRPRPRPGLGPRP,1.67
16,RRIRYRPPRLPRPRPRPFAMPRP,-0.844
17,RRIRVRPPRLPRPRPRPPNSPRP,0.12
18,RRIRVRPPRLPRPRPRPVCSPRP,-0.11
19,RRIRHRPPRLPRPRPRPNRNPRP,-1.01
20,RRIRTRPPRLPRPRPRPIITPRP,-0.645
21,RRIRIRPPRLPRPRPRPAHLPRP,0.117
22,RRIRVRPPRLPRPRPRPAQMPRP,0.126
23,RRIRGRPPRLPRPRPRPGWRPRP,1.09
24,RRIRTRPPRLPRPRPRPRDNPRP,-0.239
25,RRIRYRPPRLPRPRPRPKWKPRP,-0.0135

row,Sequence,shrunken log2 fold change
1,RRIRNRPPRLPRPRPRPATFPRP,-0.441
2,RRIRARPPRLPRPRPRPHYLPRP,-0.503
3,RRIRARPPRLPRPRPRPFYLPRP,-0.515
4,RRIRERPPRLPRPRPRPPFTPRP,1.17
5,RRIRQRPPRLPRPRPRPHKQPRP,-0.608
6,RRIRERPPRLPRPRPRPFTIPRP,-0.162
7,RRIRSRPPRLPRPRPRPTTMPRP,0.0245
8,RRIRGRPPRLPRPRPRPPDEPRP,1.27
9,RRIRARPPRLPRPRPRPWWMPRP,0.0201
10,RRIRHRPPRLPRPRPRPRCTPRP,0.0847
11,RRIRERPPRLPRPRPRPWFAPRP,-0.276
12,RRIRMRPPRLPRPRPRPVQFPRP,0.276
13,RRIRLRPPRLPRPRPRPILMPRP,0.0581
14,RRIRVRPPRLPRPRPRPPFAPRP,0.583
15,RRIRKRPPRLPRPRPRPSEPPRP,0.249
16,RRIRPRPPRLPRPRPRPCFPPRP,-0.0413
17,RRIRSRPPRLPRPRPRPNAPPRP,0.0774
18,RRIRVRPPRLPRPRPRPFIKPRP,-0.865
19,RRIRFRPPRLPRPRPRPHYTPRP,-0.385
20,RRIRNRPPRLPRPRPRPDWSPRP,-0.256
21,RRIRARPPRLPRPRPRPAAPPRP,0.99
22,RRIRFRPPRLPRPRPRPGGCPRP,0.432
23,RRIRKRPPRLPRPRPRPMMHPRP,0.0869
24,RRIRERPPRLPRPRPRPGWSPRP,0.135
25,RRIRHRPPRLPRPRPRPHWRPRP,0.125

row,Sequence,shrunken log2 fold change
1,RRIRKRPPRLPRPRPRPKFMPRP,-0.0124
2,RRIRFRPPRLPRPRPRPPEPPRP,0.54
3,RRIRHRPPRLPRPRPRPGLEPRP,0.00016
4,RRIRTRPPRLPRPRPRPQTQPRP,-0.0967
5,RRIRRRPPRLPRPRPRPQPQPRP,0.354
6,RRIRDRPPRLPRPRPRPKEGPRP,0.32
7,RRIRARPPRLPRPRPRPDFMPRP,0.466
8,RRIRVRPPRLPRPRPRPDKIPRP,-0.19
9,RRIRHRPPRLPRPRPRPWFAPRP,-0.217
10,RRIRQRPPRLPRPRPRPFLSPRP,0.024
11,RRIRIRPPRLPRPRPRPRETPRP,0.0956
12,RRIRHRPPRLPRPRPRPFITPRP,-0.799
13,RRIRLRPPRLPRPRPRPAHFPRP,-0.197
14,RRIRQRPPRLPRPRPRPFMTPRP,-0.00963
15,RRIRLRPPRLPRPRPRPHRPPRP,-0.189
16,RRIRQRPPRLPRPRPRPHLLPRP,0.006
17,RRIRERPPRLPRPRPRPMEPPRP,0.0704
18,RRIRDRPPRLPRPRPRPIPRPRP,-0.187
19,RRIRYRPPRLPRPRPRPTMEPRP,0.0667
20,RRIRFRPPRLPRPRPRPGRPPRP,0.514
21,RRIRQRPPRLPRPRPRPMLGPRP,0.0371
22,RRIRSRPPRLPRPRPRPQHLPRP,-0.372
23,RRIRERPPRLPRPRPRPRTLPRP,-0.17
24,RRIRQRPPRLPRPRPRPANKPRP,-0.397
25,RRIRKRPPRLPRPRPRPDTAPRP,0.154

row,Sequence,shrunken log2 fold change
1,RRIRWRPPRLPRPRPRPDEPPRP,-0.00634
2,RRIRTRPPRLPRPRPRPCQAPRP,-0.0455
3,RRIRRRPPRLPRPRPRPRARPRP,0.618
4,RRIRPRPPRLPRPRPRPYAYPRP,-0.192
5,RRIRQRPPRLPRPRPRPWGGPRP,0.102
6,RRIRERPPRLPRPRPRPTYNPRP,-0.908
7,RRIRIRPPRLPRPRPRPRAPPRP,0.347
8,RRIRVRPPRLPRPRPRPEWYPRP,-0.419
9,RRIRCRPPRLPRPRPRPWADPRP,-0.0237
10,RRIRTRPPRLPRPRPRPIWIPRP,-0.00704
11,RRIRARPPRLPRPRPRPWDNPRP,0.0421
12,RRIRWRPPRLPRPRPRPYKTPRP,-0.0554
13,RRIRYRPPRLPRPRPRPVPNPRP,-0.0518
14,RRIRVRPPRLPRPRPRPHRRPRP,-0.328
15,RRIRTRPPRLPRPRPRPVYSPRP,-0.239
16,RRIRPRPPRLPRPRPRPFLHPRP,-0.273
17,RRIRSRPPRLPRPRPRPVSQPRP,-0.0165
18,RRIRVRPPRLPRPRPRPARPPRP,0.486
19,RRIRSRPPRLPRPRPRPFNPPRP,-0.28
20,RRIRPRPPRLPRPRPRPTGWPRP,0.519
21,RRIRVRPPRLPRPRPRPAYEPRP,0.0112
22,RRIRCRPPRLPRPRPRPMGEPRP,0.0249
23,RRIRYRPPRLPRPRPRPQWCPRP,-0.219
24,RRIRMRPPRLPRPRPRPENVPRP,-0.0285
25,RRIRNRPPRLPRPRPRPETAPRP,0.536

row,Sequence,shrunken log2 fold change
1,RRIRRRPPRLPRPRPRPRAEPRP,0.572
2,RRIRTRPPRLPRPRPRPYSEPRP,-0.212
3,RRIRTRPPRLPRPRPRPMCGPRP,-0.171
4,RRIRLRPPRLPRPRPRPEDHPRP,-0.0495
5,RRIRARPPRLPRPRPRPQREPRP,0.869
6,RRIRWRPPRLPRPRPRPRHCPRP,0.0392
7,RRIRRRPPRLPRPRPRPRMPPRP,0.381
8,RRIRLRPPRLPRPRPRPCFMPRP,-0.311
9,RRIRKRPPRLPRPRPRPRWNPRP,0.323
10,RRIRTRPPRLPRPRPRPTWYPRP,-0.0546
11,RRIRDRPPRLPRPRPRPPNFPRP,0.0198
12,RRIRARPPRLPRPRPRPPYIPRP,-0.38
13,RRIRQRPPRLPRPRPRPYMQPRP,-0.239
14,RRIRKRPPRLPRPRPRPHHCPRP,0.0484
15,RRIRIRPPRLPRPRPRPSTDPRP,-0.247
16,RRIRMRPPRLPRPRPRPEDSPRP,0.0648
17,RRIRKRPPRLPRPRPRPPSEPRP,0.413
18,RRIRPRPPRLPRPRPRPYWKPRP,-0.189
19,RRIRMRPPRLPRPRPRPFDLPRP,0.16
20,RRIRQRPPRLPRPRPRPERHPRP,0.181
21,RRIRERPPRLPRPRPRPRPSPRP,-0.093
22,RRIRMRPPRLPRPRPRPHCCPRP,-0.0266
23,RRIRARPPRLPRPRPRPHNDPRP,-0.34
24,RRIRARPPRLPRPRPRPQAYPRP,-0.0327
25,RRIRVRPPRLPRPRPRPANMPRP,0.00908
